Measurements as given in publication PMC6127865.

Target: T1, HisMBP-CDX2ΔCTD R214N (UniProt Q99626 1-245, R214N)
T1 sequence: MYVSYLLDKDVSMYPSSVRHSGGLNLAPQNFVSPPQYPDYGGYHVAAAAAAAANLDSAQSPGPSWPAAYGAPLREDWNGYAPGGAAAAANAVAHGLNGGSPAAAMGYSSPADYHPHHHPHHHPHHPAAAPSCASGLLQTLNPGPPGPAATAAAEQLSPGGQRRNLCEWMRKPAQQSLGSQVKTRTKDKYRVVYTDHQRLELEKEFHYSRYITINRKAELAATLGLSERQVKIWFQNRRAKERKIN
Experiment: EMSA

B1: TP5921/TP5922 CDX2 consensus site duplex (dsDNA)
DNA 1: TAATCTCTCTGTTTATAGCTCTGACCT
DNA 2: AGGTCAGAGCTATAAACAGAGAGATTA
- binding result: no binding
